One molecule from US20210347900A1 (AstraZeneca / MedImmune, published 2021) can be followed below.

Assay [1] addresses T1, human LOX1 SNP K167N variant on cells (K167N SNP transfected CHO TREX cells) (human, UniProt P78380 1-273).
T1 construct: whole, on cells; also called hLOX1 K167N; K167N hLOX1 CHO
The assay is described as follows: competition with DyLight 649 oxLDL on K167N hLOX1 CHO TREX cells (FMAT); row label not given, assay assigned by block order of Table 5.

Assay [2] addresses T2, recombinant human LOX1 (R&D Systems) (human, UniProt P78380 61-273). The experiment in a line: competition with biotin CRP on immobilised recombinant hLOX1 (DELFIA); row label not given, assay assigned by block order of Table 5.
The target in assay [3] is T3, human LOX1 on cells (human LOX1 transfected CHO TREX cells) (human, UniProt P78380 1-273). The experiment in a line: cell-based or functional assay.
In assay [4] the target is T3, human LOX1 on cells (human LOX1 …). The assay is described as follows: competition with DyLight 649 AGE-BSA on human LOX1 CHO TREX cells, FMAT.
For assay [5] the target is unchanged. The assay is described as follows: competition with DyLight 649 oxLDL on hLOX1 CHO TREX cells (FMAT); row label not given, assay assigned by block order of Table 5; first Mean/SD/n block of Table 2 (oxLDL/hLOX1 competition), n = 8.
Assay [6] has as its target T2, recombinant human LOX1 (R&D Systems). The experiment in a line: competition with biotin CRP on plate-bound recombinant human LOX1, DELFIA.
The target in assay [7] is T3, human LOX1 on cells (human LOX1 …). The experiment in a line: competition with DyLight 649 AGE-BSA on hLOX1 CHO TREX cells (FMAT); row label not given, assay assigned by block order of Table 5.
Assay [8] concerns the target T1, human LOX1 SNP K167N variant on cells …. The assay is described as follows: competition with DyLight 649 oxLDL on human LOX1 K167N CHO TREX cells, FMAT.
For assay [9], the target named is T4, Human CLEC-7A (Dectin-1) (human, UniProt Q9BXN2-2 66-201, limits assumed).
T4 construct: Bought protein; also called C-type lectin domain family 7 member A
T4 sequence (looked up): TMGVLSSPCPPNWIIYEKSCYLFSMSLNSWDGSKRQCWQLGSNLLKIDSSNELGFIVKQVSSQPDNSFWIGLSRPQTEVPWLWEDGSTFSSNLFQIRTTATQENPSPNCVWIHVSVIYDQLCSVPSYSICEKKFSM
The experiment in a line: IgG binding ELISA on coated antigen, absorbance at 450 nm. On the technique in general: An ELISA detects its analyte on a solid surface through an enzyme-linked reagent.

For assay [10], the target named is T5, Human SR-A1 (MSR) (human, UniProt P21757 77-451).
T5 construct: Bought protein; also called Macrophage scavenger receptor types I and II
T5 sequence (looked up): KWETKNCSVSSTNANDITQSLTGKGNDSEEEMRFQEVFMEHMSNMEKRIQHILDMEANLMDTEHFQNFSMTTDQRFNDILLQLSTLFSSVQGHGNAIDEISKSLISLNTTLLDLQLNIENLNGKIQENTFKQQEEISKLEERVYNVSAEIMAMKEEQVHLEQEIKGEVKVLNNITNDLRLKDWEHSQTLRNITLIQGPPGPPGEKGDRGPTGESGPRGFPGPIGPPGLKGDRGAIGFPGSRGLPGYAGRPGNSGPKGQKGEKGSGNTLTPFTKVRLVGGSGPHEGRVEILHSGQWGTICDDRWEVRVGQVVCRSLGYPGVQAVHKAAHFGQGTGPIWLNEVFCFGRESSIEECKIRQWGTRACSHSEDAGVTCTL
The assay is described as above.

Assay [11] deals with T6, Human CLEC-4L (DC-SIGN) (human, UniProt Q9NNX6 62-404).
T6 construct: Bought protein; also called C-type lectin domain family 4 member L
T6 sequence (looked up): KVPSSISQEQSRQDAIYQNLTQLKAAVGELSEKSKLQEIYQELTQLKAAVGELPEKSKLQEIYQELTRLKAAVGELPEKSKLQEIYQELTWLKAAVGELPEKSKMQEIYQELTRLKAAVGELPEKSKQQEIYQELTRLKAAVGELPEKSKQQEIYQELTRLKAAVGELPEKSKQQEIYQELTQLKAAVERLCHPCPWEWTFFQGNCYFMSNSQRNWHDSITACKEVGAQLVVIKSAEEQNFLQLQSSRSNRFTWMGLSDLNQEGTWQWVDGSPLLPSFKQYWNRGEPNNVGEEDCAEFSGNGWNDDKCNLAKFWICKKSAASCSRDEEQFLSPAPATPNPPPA
The description is as above.

In assay [12] the target is T7, Human SR-B3 (CD36) (human, UniProt P16671 30-439).
T7 construct: Bought protein; also called Platelet glycoprotein 4
T7 sequence (P16671 30-439 limits assumed): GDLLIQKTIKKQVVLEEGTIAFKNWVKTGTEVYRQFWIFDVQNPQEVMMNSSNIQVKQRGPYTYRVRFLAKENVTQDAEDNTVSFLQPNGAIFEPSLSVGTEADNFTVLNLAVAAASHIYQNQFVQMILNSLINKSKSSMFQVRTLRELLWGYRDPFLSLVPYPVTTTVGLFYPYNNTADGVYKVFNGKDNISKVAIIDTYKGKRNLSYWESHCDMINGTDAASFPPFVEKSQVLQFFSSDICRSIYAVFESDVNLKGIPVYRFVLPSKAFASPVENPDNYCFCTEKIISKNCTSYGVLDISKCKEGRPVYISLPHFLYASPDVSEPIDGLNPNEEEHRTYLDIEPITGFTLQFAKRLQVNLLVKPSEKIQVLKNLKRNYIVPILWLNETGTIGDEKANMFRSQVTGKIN
Described as above.

For assay [13], the target named is T8, Human CLEC-1A (human, UniProt Q8NC01 74-280, limits assumed).
T8 construct: Bought protein; also called C-type lectin domain family 1 member A
T8 sequence (looked up): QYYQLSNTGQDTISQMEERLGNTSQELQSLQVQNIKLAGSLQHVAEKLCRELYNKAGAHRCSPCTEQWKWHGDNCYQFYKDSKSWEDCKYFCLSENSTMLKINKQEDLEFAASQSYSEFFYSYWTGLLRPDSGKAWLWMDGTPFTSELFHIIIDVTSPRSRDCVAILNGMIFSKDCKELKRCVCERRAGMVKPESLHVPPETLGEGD
The description is as above.

The target of assay [14] is T9, Human CLEC-1B (CLEC-2) (human, UniProt Q9P126 58-229, limits assumed).
T9 construct: Bought protein; also called C-type lectin domain family 1 member B
T9 sequence (Q9P126 58-229 limits assumed): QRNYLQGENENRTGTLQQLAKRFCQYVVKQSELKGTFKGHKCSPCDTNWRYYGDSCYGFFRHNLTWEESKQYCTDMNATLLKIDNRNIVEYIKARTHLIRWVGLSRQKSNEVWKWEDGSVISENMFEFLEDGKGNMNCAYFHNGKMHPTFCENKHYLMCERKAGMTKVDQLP
The assay is described as above.

Assay [15] concerns the target T3, human LOX1 on cells (human LOX1 …). The assay is described as follows: competition with DyLight 649 oxLDL on human LOX1 CHO TREX cells, FMAT.
Assay [16] shares this target. The assay is described as follows: saturation binding of DyLight 649 labelled antibody on hLOX1 CHO TREX cells (FMAT).

B1: LOX696 IgG1-TM (antibody, V domains shown)
VH: QVQLVQSGGGLVQPGRSLRLSCAASGFTFDDYAMHWVRQAPGKGLEWVSGISWNSGSIGYADSVKGRFTISRDNAKNSLYLQMNSLRAEDTAVYYCAREGNWNYDAFDIWGRGTTVTVSS
VL: QSALTQPASVSGSPGQSITISCTGTSSDVGGYNYVSWYQQHPGKAPKLMIYDVSNRPSGVSNRFSGSKSGNTASLTISGLQAEDEADYYCSSYTSSSTNWVFGGGTKLTVL
notes: Whole human IgG1-TM (L234F/L235E/P331S); Labelled with DyLight 649 in Assay 7; also called LOX10696-IgG1-TM; LOX10696 IgG1-TM
As usually defined, the IC50 is the concentration that inhibits the measured activity by half. As usually defined, the Kd is the concentration at which binding is half-saturated. A lower Kd goes with higher affinity. As to B1, the IC50 in assay [1] came to 0.246 nM; in [2], 4.69 nM; in assay [5] it was 0.131 nM; in assay [7], 0.0873 nM. In [3], the “IC50 of inhibition of Cypher 5E oxLDL internalization in hLOX1 CHO TREX cells (row label not given; assay assigned by block order of Table 5)” value came to 0.35 nM. Further, the “IC50 of inhibition of oxLDL-dependent ROS generation in hLOX1 CHO TREX cells (row label not given; assay assigned by block order of Table 5)” value in [3] is 6.22 nM. For the same molecule, the “IC50 (read off the curve)” value in assay [4] was about 0.01 nM; in assay [6], about 2 nM; in [8], about 0.4 nM; in [15], about 0.3 nM. The binding result in [9], in [10], in [11], in [12], in assay [13] and in assay [14] was “no binding (tested: 0.2 µg/mL (single concentration))” each time. Moreover, binding in assay [16] was characterised by a dissociation constant (Kd) of 3.3 nM.
